{"source": "patent US20230036161A1", "about": "“AGENT FOR USE IN THE TREATMENT AND PROPHYLAXIS OF POSTISCHEMIC TISSUE INJURY” (Eberhard Karls Universität Tübingen Medizinische Fakultät, priority 2020, published 2023)", "key": {"[1]": {"tested_on": "human cardiac myocytes (HMCs)", "assay": "Caspase 3 staining and caspase 3 ELISA in cardiac myocytes", "type": "cell-based", "conditions": "1 μg/ml; cardiomyocytes", "experimental": "Human cardiac myocytes (HMC-c; PromoCell, Heidelberg, Germany) were grown to confluence on chamber slides followed by 6 hours of stimulation with rhSEMA7A, rhlgG1 Fc, BSA, or staurosporine (Sigma-Aldrich, Munich, Germany), 1 μg/ml each. After fixation, cells were stained with rabbit polyclonal anticaspase3 (abcam, Cambridge, UK)."}, "[2]": {"tested_on": "WT animals", "assay": "Murine myocardial ischemia and reperfusion model, rmSema7a injected into WT animals", "type": "in vivo, mouse", "experimental": "This animal model has been described in detail in the prior art. Subgroups of animals received either recombinant mouse Sema7a (rmSema7a) or recombinant mouse IgG2A Fc (rmlgG2A Fc; control) intravenously before the start of the experiment or Sema7a antibody (abcam ab23578, Cambridge, UK; anti-Sema7a) or as control rabbit IgG sc-2027 (Santa Cruz Biotechnology, Santa Cruz, USA) 5 minutes before the start of reperfusion.\nThe Vectastain ABC kit (Linaris, Wertheim, Germany) was used for immunohistochemical staining. After inhibition of the nonspecific binding sites with avidin blocking solution (Vector), the sections were incubated with primary antibodies (rabbit anti-mouse CD41, abcam, Cambridge, UK) overnight at 4° C. Tissue sections were then incubated with biotinylated rabbit anti-IgG for 1 hour, followed by Vectastain ABC reagent for 30 minutes, then developed over DAB substrate. For PMN staining, the procedure was repeated using rat anti-mouse neutrophil antibody (BioRad, Serotec, Puchheim, Germany) and HistoGreen as substrate (Linaris, Wertheim, Germany). Counterstaining was performed with Nuclear Fast Red (Linaris, Wertheim, Germany). Histological sections were analyzed for the presence of PNCs by manual counting within 3 independent tissue sections of each animal at a magnification of […].\n(§1) Troponin blood plasma levels of samples collected by central venous puncture after 120 minutes of reperfusion were measured for murine troponin I type 3 (TNNI3) using the SEA478Mu ELISA kit (Cloud-Clone Corp, Houston, USA).\nFor flow cytometric analysis, the following antibodies were used and freshly prepared before the experiment: rat anti-mouse Ly6G (Biolegend, clone 1A8) labeled with BV421 (Biolegend 127628), rat anti-mouse CD42b-FITC (Emfret, clone Xia.G5), rat anti-mouse CD62P (BD Pharmingen, clone RB40.34) labeled with Alexa Fluor 647 (BD 563674), rat anti-mouse activated GPIlb/IIIa-PE (Emfret, clone JON/A).\nAfter staining, sampling focused peripheral granulocytes by their granularity and surface expression of the lymphocyte antigen-6 complex, locus G (Ly-6G), referred to as SSC/Ly-6G+. The presence of the platelet surface marker CD42b on the surface of SSC/Ly-6G+ events distinguished SSC/Ly-6G+/CD42b+ platelet-neutrophil complexes (PNCs) from freely circulating SSC/Ly-6G+/CD42b- PMNs. These two populations were tested for their representation of the surface transmembrane glycoprotein P-selectin (CD62P) and activated GPIlb/IIIa (clone JON/A) (not shown)."}, "[3]": {"tested_on": "Sema7a^loxP/loxP HBBCre+ animals", "assay": "Murine myocardial ischemia and reperfusion model, reconstitution of Sema7a loxP/loxP HbbCre+ animals with rmSema7a", "type": "in vivo, mouse", "description": "Sema7a^−/−mice were generated, validated and characterized as described in the prior art. The corresponding WT controls were bred as littermates of the Sema7a mice. In a subset of experiments, a newly generated Sema7a flox mouse line (Sema7a^loxP/loxP/Ozgene) on a C57BL/6 background was crossed with the following Cre recombinase-positive mouse lines to obtain tissue-specific gene deletion: Erythrocyte-specific HbbCre+, myocardial cell-specific Myh6Cre+; endothelial cell-specific Tie2Cre+; and immune cell-specific LysMCre+. Tissue-specific gene deletions of Sema7a mouse lines (Sema7a^loxP/loxP HbbCre+; Sema7a^loxP/loxP Myh6Cre+, […], and Sema7a^loxP/loxP LysMCre+) were used in the experiments. Sema7a^loxP/loxP Cre-negative (−) littermates were used as controls. […]\nThe Vectastain ABC kit (Linaris, Wertheim, Germany) was used for immunohistochemical staining. […] Histological sections were analyzed for the presence of PNCs by manual counting within 3 independent tissue sections of each animal at a magnification of […].\nas §1"}, "[4]": {"tested_on": "WT platelets", "assay": "Flow chamber: thrombus formation on collagen in flow, whole-blood perfusion", "type": "cell-based, mouse", "experimental": "(§2) Platelet adhesion in flow was measured by perfusion of murine whole blood on collagen-coated coverslips (200 μg/ml fibrillar type I collagen) at 1000 s^−1 or 400 s^−1, as indicated. Platelets were labeled with a DyLight 488-conjugated anti-GPIX Ig derivative ([…]) and treated with rmSema7a or IgG2A Fc for 5 minutes at 37° C. before perfusion. In the case of treatment with GPlb-blocking antibody, 100 μg/mouse p0p/B Fab was injected intravenously 20 minutes before blood collection for the experiment. In further experiments, blood from animals with […] GPlb (GPlb-IL4tg) was used."}, "[5]": {"tested_on": "GPlb-IL-4-tg platelets", "assay": "Flow chamber: thrombus formation on collagen in flow, blood of GPlb-IL-4tg mice", "type": "cell-based, mouse", "conditions": "shear rate 1000 s−1", "experimental": "as §2"}, "[6]": {"tested_on": "neutrophils", "assay": "Neutrophil rolling/adhesion, coated capillaries and intravital microscopy of cremaster", "design": "species or system mouse", "conditions": "in vitro and in vivo", "experimental": "Mice were anesthetized, and cremasal tissue was dissected under a Nikon 20×water immersion lens (NA=0.32). Neutrophils were resuspended with 20 μl of anti-Ly6G (Biolegend 127608) and platelets with 20 μl of platelet-specific FITC-labeled X488 antibody (emfret, Eibelstadt, Germany) in 200 μl and administered i.v. Videos of postcapillary cremaster venules 20-40 μm in diameter were recorded using a Hamamatsu Orca Flash 4.0 camera mounted on a dual-emission image splitter (optoSplit II, Cairn Research; UK) at a rate of 16 frames/s (for videos totaling 10 seconds) and with a resolution of 2048×1024 pixels mounted on a Nikon Eclipse Ci-L microscope (Nikon, Dusseldorf; Germany) operated by NIS elements Ar software. Videos were recorded before administration of rmSema7a i.v., and videos were recorded at 20-second intervals for 5 minutes after incubation for 15 minutes. Neutrophil velocity (μm/sec) was calculated from manually tracked cells, stationary neutrophils were counted (cell count/mm^2), platelet sedimentation on the vessel wall was measured (normalized MFI %/mm), transmigrated cells from the vasculature after 15 min exposure to rmSema7a were counted (cell count/mm^2), the distance of transmigrated cells measured in μm in all videos was calculated using NIS elements Ar software 4.20-64 bit processed (Nikon, Dusseldorf, Germany)."}}, "data": [{"molecule": "rhSEMA7A: recombinant human SEMA7A (protein, UniProt O75326 45-648, looked up) Semaphorin-7A: QGHLRSGPRIFAVWKGHVGQDRVDFGQTEPHTVLFHEPGSSSVWVGGRGKVYLFDFPEGKNASVRTVNIGSTKGSCLDKRDCENYITLLERRSEGLLACGTNARHPSCWNLVNGTVVPLGEMRGYAPFSPDENSLVLFEGDEVYSTIRKQEYNGKIPRFRRIRGESELYTSDTVMQNPQFIKATIVHQDQAYDDKIYYFFREDNPDKNPEAPLNVSRVAQLCRGDQGGESSLSVSKWNTFLKAMLVCSDAATNKNFNRLQDVFLLPDPSGQWRDTRVYGVFSNPWNYSAVCVYSLGDIDKVFRTSSLKGYHSSLPNPRPGKCLPDQQPIPTETFQVADRHPEVAQRVEPMGPLKTPLFHSKYHYQKVAVHRMQASHGETFHVLYLTTDRGTIHKVVEPGEQEHSFAFNIMEIQPFRRAAAIQTMSLDAERRKLYVSSQWEVSQVPLDLCEVYGGGCHGCLMSRDPYCGWDQGRCISIYSSERSVLQSINPAEPHKECPNPKPDKAPLQKVSLAPNSRYYLSCPMESRHATYSWRHKENVEQSCEPGHQSPNCILFIENLTAQQYGHYFCEAQEGSYFREAQHWQLLPEDGIMAEHLLGHACALA", "values": [{"measurement": "pro-apoptotic effect assessed by caspase 3 activation", "setting": "[1]", "value": "no direct pro-apoptotic effect"}]}, {"molecule": "rmSema7a: recombinant mouse Sema7a fusion protein (R&D SYSTEMS, Minneapolis, USA) (protein, left off: a dimerising Fc or GST) QGHSRSGPRISAVWKGQDHVDFSQPEPHTVLFHEPGSFSVWVGGRGKVYHFNFPEGKNASVRTVNIGSTKGSCQDKQDCGNYITLLERRGNGLLVCGTNARKPSCWNLVNDSVVMSLGEMKGYAPFSPDENSLVLFEGDEVYSTIRKQEYNGKIPRFRRIRGESELYTSDTVMQNPQFIKATIVHQDQAYDDKIYYFFREDNPDKNPEAPLNVSRVAQLCRGDQGGESSLSVSKWNTFLKAMLVCSDAATNRNFNRLQDVFLLPDPSGQWRDTRVYGVFSNPWNYSAVCVYSLGDIDRVFRTSSLKGYHMGLPNPRPGMCLPKKQPIPTETFQVADSHPEVAQRVEPMGPLKTPLFHSKYHYQKVVVHRMQASNGETFHVLYLTTDRGTIHKVVESGDQDHSFVFNIMEIQPFHRAAAIQAISLDADRRKLYVTSQWEVSQVPLDMCEVYSGGCHGCLMSRDPYCGWDQDRCVSIYSSQRSVLQSINPAEPHRECPNPKPDEAPLQKVSLARNSRYYLTCPMESRHATYLWRHEENVEQSCEPGHQSPSCILFIENLTARQYGHYRCEAQEGSYLREAQHWELLPEDRALAEQLMGHARALA", "values": [{"measurement": "infarct size", "setting": "[2]; 1 μg/mouse before reperfusion, compared with rmIgG2A Fc control", "value": "significantly increased infarct size"}, {"measurement": "numbers of PNCs in tissue areas at risk (histological sections)", "setting": "[2]; compared with Fc controls", "value": "decreased numbers of PNCs"}, {"measurement": "tissue damage in histological sections", "setting": "[2]; compared with Fc controls", "value": "increased tissue damage"}, {"measurement": "PNCs extravasated into the myocardium in the AAR", "setting": "[2]; flow cytometry", "value": "more PNCs extravasated"}, {"measurement": "numbers of PNCs in the blood", "setting": "[2]; flow cytometry", "value": "significantly increased numbers of PNCs"}, {"measurement": "signals for GPlb, P-selectin, and activated integrin αIIbβ3 (JON/A) on conjugates in the AAR", "setting": "[2]; flow cytometry", "value": "significantly increased signals"}, {"measurement": "signals for the platelet markers GPlb, CD62P, and activated integrin αIIbβ3 (JON/A) on conjugates in blood", "setting": "[2]; flow cytometry", "value": "stronger signals"}, {"measurement": "troponin I", "setting": "[2]; plasma, 120 min, compared with Fc control", "value": "increased troponin I"}, {"measurement": "reduction in infarct size, plasma TnI and PNCs seen in Sema7a loxP/loxP HbbCre+ animals", "setting": "[3]; injection of rmSema7a", "value": "these results were reversed"}, {"measurement": "MIRI", "setting": "[3]; ischemia 1 h, reperfusion 2 h, vs Fc control", "value": "increased MIRI"}, {"measurement": "adhesion and thrombus formation of WT platelets on collagen in flow", "setting": "[4]; shear rate 400 s^−1", "value": "markedly enhances"}, {"measurement": "adhesion and thrombus formation of WT platelets on collagen in flow", "setting": "[4]; shear rate 1000 s^−1", "value": "markedly enhances"}, {"measurement": "adhesion or thrombus formation of GPlb-IL-4-tg platelets on collagen in flow", "setting": "[5]", "value": "does not affect"}, {"measurement": "neutrophil adhesion", "setting": "[6]", "value": "affected neutrophil adhesion"}]}]}
